In the test the target is T1, falcilysin E132Q single mutant (residues 59-1193) (Plasmodium falciparum, UniProt Q76NL8 59-1193, E132Q).
T1 sequence (looked up): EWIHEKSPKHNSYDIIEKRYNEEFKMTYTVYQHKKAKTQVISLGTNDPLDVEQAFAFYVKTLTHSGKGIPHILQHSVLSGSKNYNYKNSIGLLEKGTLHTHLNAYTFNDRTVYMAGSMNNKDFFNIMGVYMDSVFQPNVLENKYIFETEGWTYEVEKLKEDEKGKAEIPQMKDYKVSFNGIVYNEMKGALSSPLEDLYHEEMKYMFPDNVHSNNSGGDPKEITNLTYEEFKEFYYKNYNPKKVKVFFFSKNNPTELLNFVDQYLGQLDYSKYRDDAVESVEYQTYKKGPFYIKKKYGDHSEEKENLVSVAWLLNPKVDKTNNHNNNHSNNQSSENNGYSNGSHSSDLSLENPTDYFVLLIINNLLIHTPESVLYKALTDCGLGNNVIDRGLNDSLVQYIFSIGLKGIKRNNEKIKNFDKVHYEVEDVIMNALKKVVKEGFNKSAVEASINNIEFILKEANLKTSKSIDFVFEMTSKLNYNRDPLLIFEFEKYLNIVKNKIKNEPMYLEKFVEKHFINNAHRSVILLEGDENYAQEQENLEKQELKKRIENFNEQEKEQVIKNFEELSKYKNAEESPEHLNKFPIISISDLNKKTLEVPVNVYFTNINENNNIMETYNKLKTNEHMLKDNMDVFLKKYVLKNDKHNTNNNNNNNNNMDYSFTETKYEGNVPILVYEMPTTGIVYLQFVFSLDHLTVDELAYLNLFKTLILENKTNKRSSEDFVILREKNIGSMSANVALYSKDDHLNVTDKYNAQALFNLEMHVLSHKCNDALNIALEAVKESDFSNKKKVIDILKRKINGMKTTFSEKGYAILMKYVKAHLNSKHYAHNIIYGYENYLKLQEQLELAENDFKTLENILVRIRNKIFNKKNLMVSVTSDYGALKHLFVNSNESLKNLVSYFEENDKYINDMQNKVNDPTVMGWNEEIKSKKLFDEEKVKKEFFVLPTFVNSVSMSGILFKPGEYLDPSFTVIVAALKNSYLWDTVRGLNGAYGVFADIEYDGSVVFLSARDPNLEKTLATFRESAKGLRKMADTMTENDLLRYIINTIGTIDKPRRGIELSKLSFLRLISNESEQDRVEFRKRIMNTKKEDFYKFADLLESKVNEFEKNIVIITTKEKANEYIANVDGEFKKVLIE
Description: ITC. On the technique in general: In ITC the heat of successive injections is recorded.

We go through 2 molecules from article PMC11365994 (Communications Biology, 2024).

Turning to VVYPWTQRFFESFGD [hemoglobin β chain peptide (residues V33 to D47)], binding was characterised by a dissociation constant (Kd) of 499 nM. The molecule LSFPTTKTYFPHFD [hemoglobin α chain peptide (residues L34 to D47)] returned a dissociation constant (Kd) of 933 nM.

Broadly, the Kd is the free concentration of one partner at which half of the binding sites on the other are occupied at equilibrium, for simple one-to-one binding. A lower Kd goes with a tighter complex.
